Source: patent publication US12247058 (Bristol-Myers Squibb, dated 2025)
Non-standard residues stand in square brackets, D forms with d. Phe(4-Ac) = CC(=O)c1ccc(C[C@H](N)C(=O)O)cc1

B1: Compound 19 (ligand)
chain: MHPIPDSSPLLQFGGQVRQRYLYTDDAQQTEAHLEIREDGTVGGAADQSPESLLQLKALKPGVIQILGVKTSRFLCQRPDGALYGSLHFDPEACSFRELLLEDGYNVYQSEAHGLPLHLGSGPHRDPAPRGPARFLPLPGLPPAPPEPPGILAPQPPDVGSSDPLSMVEPSQGRSPSYAS
B2: Compound 20 (ligand)
chain: MHPIPDSSPLLQFGGQVRQRYLYTDDAQQTEAHLEIREDGTVGGAADQSPESLLQLKALKPGVIQILGVKTSRFLCQRPDGALYGSLHFDPEACSFRELLLEDGYNVYQSEAHGLPLHLGGHRDPAPRGPARFLPLPGLPPAPPEPPGILAPQPPDVGSSDPLSMVEPSQGRSPSYAS
B3: Compound 22 (ligand)
chain: MHPIPDSSPLLQFGGQVRQRYLYTDDAQQTEAHLEIREDGTVGGAADQSPESLLQLKALKPGVIQILGVKTSRFLCQRPDGALYGSLHFDPEACSFRELLLEDGYNVYQSEAHGLPLHLSGGPAPRGPARFLPLPGLPPAPPEPPGILAPQPPDVGSSDPLSMVEPSQGRSPSYAS
B4: Compound 23 (ligand)
chain: MHPIPDSSPLLQFGGQVRQRYLYTDDAQQTEAHLEIREDGTVGGAADQSPESLLQLKALKPGVIQILGVKTSRFLCQRPDGALYGSLHFDPEACSFRELLLEDGYNVYQSEAHGLPLHLGGGPARFLPLPGLPPAPPEPPGILAPQPPDVGSSDPLSMVEPSQGRSPSYAS
B5: Pegylated Compound 5 (ligand)
chain: MHPIPDSSPLLQFGGQVRQRYLYTDDAQQTEAHLEIREDGTVGGAADQSPESLLQLKALKPGVIQILGVKTSRFLCQRPDGALYGSLHFDPEACSFRELLLEDGYNVY[Phe(4-Ac)](PEG 30 kDa)SEAHGLPLHLPGDKSRDPAPRGPARFLPLPGLPPAPPEPPGILAPQPPDVGSSDPLSMVEPSQGRSPSYAS
B6: Pegylated Compound 6 (ligand)
chain: MHPIPDSSPLLQFGGQVRQRYLYTDDAQQTEAHLEIREDGTVGGAADQSPESLLQLKALKPGVIQILGVKTSRFLCQRPDGALYGSLHFDPEACSFRELLLEDGYNVY[Phe(4-Ac)](PEG 30 kDa)SEAHGLPLHLPGHKSRDPAPRGPARFLPLPGLPPAPPEPPGILAPQPPDVGSSDPLSMVEPSQGRSPSYAS
B7: Pegylated Compound 10 (ligand)
chain: MHPIPDSSPLLQFGGQVRQRYLYTDDAQQTEAHLEIREDGTVGGAADQSPESLLQLKALKPGVIQILGVKTSRFLCQRPDGALYGSLHFDPEACSFRELLLEDGYNVY[Phe(4-Ac)](PEG about 30 kDa)SEAHGLPLHLGSGGPARFLPLPGLPPAPPEPPGILAPQPPDVGSSDPLSMVEPSQGRSPSYAS
B8: Pegylated Compound 11 (ligand)
chain: MHPIPDSSPLLQFGGQVRQRYLYTDDAQQTEAHLEIREDGTVGGAADQSPESLLQLKALKPGVIQILGVKTSRFLCQRPDGALYGSLHFDPEACSFRELLLEDGYNVY[Phe(4-Ac)](PEG about 30 kDa)SEAHGLPLHLGSGHRDPAPRGPARFLPLPGLPPAPPEPPGILAPQPPDVGSSDPLSMVEPSQGRSPSYAS
B9: Compound 2 (ligand)
chain: MHPIPDSSPLLQFGGQVRQRYLYTDDAQQTEAHLEIREDGTVGGAADQSPESLLQLKALKPGVIQILGVKTSRFLCQRPDGALYGSLHFDPEACSFRELLLEDGYNVYQSEAHGLPLHLGSGRGPARFLPLPGLPPAPPEPPGILAPQPPDVGSSDPLSMVEPSQGRSPSYAS
B10: Pegylated Compound 12 (ligand)
chain: MHPIPDSSPLLQFGGQVRQRYLYTDDAQQTEAHLEIREDGTVGGAADQSPESLLQLKALKPGVIQILGVKTSRFLCQRPDGALYGSLHFDPEACSFRELLLEDGYNVY[Phe(4-Ac)](PEG about 30 kDa)SEAHGLPLHLPHHSGRDPAPRGPARFLPLPGLPPAPPEPPGILAPQPPDVGSSDPLSMVEPSQGRSPSYAS
B11: Pegylated Compound 19 (ligand)
chain: MHPIPDSSPLLQFGGQVRQRYLYTDDAQQTEAHLEIREDGTVGGAADQSPESLLQLKALKPGVIQILGVKTSRFLCQRPDGALYGSLHFDPEACSFRELLLEDGYNVY[Phe(4-Ac)](PEG about 30 kDa)SEAHGLPLHLGSGPHRDPAPRGPARFLPLPGLPPAPPEPPGILAPQPPDVGSSDPLSMVEPSQGRSPSYAS
B12: Pegylated Compound 20 (ligand)
chain: MHPIPDSSPLLQFGGQVRQRYLYTDDAQQTEAHLEIREDGTVGGAADQSPESLLQLKALKPGVIQILGVKTSRFLCQRPDGALYGSLHFDPEACSFRELLLEDGYNVY[Phe(4-Ac)](PEG about 30 kDa)SEAHGLPLHLGGHRDPAPRGPARFLPLPGLPPAPPEPPGILAPQPPDVGSSDPLSMVEPSQGRSPSYAS
B13: Pegylated Compound 21 (ligand)
chain: MHPIPDSSPLLQFGGQVRQRYLYTDDAQQTEAHLEIREDGTVGGAADQSPESLLQLKALKPGVIQILGVKTSRFLCQRPDGALYGSLHFDPEACSFRELLLEDGYNVY[Phe(4-Ac)](PEG about 30 kDa)SEAHGLPLHLGSGRDPAPRGPARFLPLPGLPPAPPEPPGILAPQPPDVGSSDPLSMVEPSQGRSPSYAS
B14: Pegylated Compound 22 (ligand)
chain: MHPIPDSSPLLQFGGQVRQRYLYTDDAQQTEAHLEIREDGTVGGAADQSPESLLQLKALKPGVIQILGVKTSRFLCQRPDGALYGSLHFDPEACSFRELLLEDGYNVY[Phe(4-Ac)](PEG 30 kDa)SEAHGLPLHLSGGPAPRGPARFLPLPGLPPAPPEPPGILAPQPPDVGSSDPLSMVEPSQGRSPSYAS
B15: Compound 3 (ligand)
chain: MHPIPDSSPLLQFGGQVRQRYLYTDDAQQTEAHLEIREDGTVGGAADQSPESLLQLKALKPGVIQILGVKTSRFLCQRPDGALYGSLHFDPEACSFRELLLEDGYNVYQSEAHGLPLHLPGNKSPHRDPAPRGPARFLPLPGLPPAPPEPPGILAPQPPDVGSSDPLSMVEPSQGRSPSYAS
B16: Compound 5 (ligand)
chain: MHPIPDSSPLLQFGGQVRQRYLYTDDAQQTEAHLEIREDGTVGGAADQSPESLLQLKALKPGVIQILGVKTSRFLCQRPDGALYGSLHFDPEACSFRELLLEDGYNVYQSEAHGLPLHLPGDKSRDPAPRGPARFLPLPGLPPAPPEPPGILAPQPPDVGSSDPLSMVEPSQGRSPSYAS
B17: Compound 6 (ligand)
chain: MHPIPDSSPLLQFGGQVRQRYLYTDDAQQTEAHLEIREDGTVGGAADQSPESLLQLKALKPGVIQILGVKTSRFLCQRPDGALYGSLHFDPEACSFRELLLEDGYNVYQSEAHGLPLHLPGHKSRDPAPRGPARFLPLPGLPPAPPEPPGILAPQPPDVGSSDPLSMVEPSQGRSPSYAS
B18: Compound 7 (ligand)
chain: MHPIPDSSPLLQFGGQVRQRYLYTDDAQQTEAHLEIREDGTVGGAADQSPESLLQLKALKPGVIQILGVKTSRFLCQRPDGALYGSLHFDPEACSFRELLLEDGYNVYQSEAHGLPLHLPGDKSPHRDPAPRGPARFLPLPGLPPAPPEPPGILAPQPPDVGSSDPLSMVEPSQGRSPSYAS
B19: Compound 10 (ligand)
chain: MHPIPDSSPLLQFGGQVRQRYLYTDDAQQTEAHLEIREDGTVGGAADQSPESLLQLKALKPGVIQILGVKTSRFLCQRPDGALYGSLHFDPEACSFRELLLEDGYNVYQSEAHGLPLHLGSGGPARFLPLPGLPPAPPEPPGILAPQPPDVGSSDPLSMVEPSQGRSPSYAS
B20: Compound 11 (ligand)
chain: MHPIPDSSPLLQFGGQVRQRYLYTDDAQQTEAHLEIREDGTVGGAADQSPESLLQLKALKPGVIQILGVKTSRFLCQRPDGALYGSLHFDPEACSFRELLLEDGYNVYQSEAHGLPLHLGSGHRDPAPRGPARFLPLPGLPPAPPEPPGILAPQPPDVGSSDPLSMVEPSQGRSPSYAS
B21: Compound 12 (ligand)
chain: MHPIPDSSPLLQFGGQVRQRYLYTDDAQQTEAHLEIREDGTVGGAADQSPESLLQLKALKPGVIQILGVKTSRFLCQRPDGALYGSLHFDPEACSFRELLLEDGYNVYQSEAHGLPLHLPHHSGRDPAPRGPARFLPLPGLPPAPPEPPGILAPQPPDVGSSDPLSMVEPSQGRSPSYAS

Assays:
[1] = target: T1, human β-klotho with a C-terminal FLAG tag, stably expressed in a clonal HEK-293 cell line (human, UniProt Q86Z14 1-1044); experiment: cell-based or functional assay
T1 sequence: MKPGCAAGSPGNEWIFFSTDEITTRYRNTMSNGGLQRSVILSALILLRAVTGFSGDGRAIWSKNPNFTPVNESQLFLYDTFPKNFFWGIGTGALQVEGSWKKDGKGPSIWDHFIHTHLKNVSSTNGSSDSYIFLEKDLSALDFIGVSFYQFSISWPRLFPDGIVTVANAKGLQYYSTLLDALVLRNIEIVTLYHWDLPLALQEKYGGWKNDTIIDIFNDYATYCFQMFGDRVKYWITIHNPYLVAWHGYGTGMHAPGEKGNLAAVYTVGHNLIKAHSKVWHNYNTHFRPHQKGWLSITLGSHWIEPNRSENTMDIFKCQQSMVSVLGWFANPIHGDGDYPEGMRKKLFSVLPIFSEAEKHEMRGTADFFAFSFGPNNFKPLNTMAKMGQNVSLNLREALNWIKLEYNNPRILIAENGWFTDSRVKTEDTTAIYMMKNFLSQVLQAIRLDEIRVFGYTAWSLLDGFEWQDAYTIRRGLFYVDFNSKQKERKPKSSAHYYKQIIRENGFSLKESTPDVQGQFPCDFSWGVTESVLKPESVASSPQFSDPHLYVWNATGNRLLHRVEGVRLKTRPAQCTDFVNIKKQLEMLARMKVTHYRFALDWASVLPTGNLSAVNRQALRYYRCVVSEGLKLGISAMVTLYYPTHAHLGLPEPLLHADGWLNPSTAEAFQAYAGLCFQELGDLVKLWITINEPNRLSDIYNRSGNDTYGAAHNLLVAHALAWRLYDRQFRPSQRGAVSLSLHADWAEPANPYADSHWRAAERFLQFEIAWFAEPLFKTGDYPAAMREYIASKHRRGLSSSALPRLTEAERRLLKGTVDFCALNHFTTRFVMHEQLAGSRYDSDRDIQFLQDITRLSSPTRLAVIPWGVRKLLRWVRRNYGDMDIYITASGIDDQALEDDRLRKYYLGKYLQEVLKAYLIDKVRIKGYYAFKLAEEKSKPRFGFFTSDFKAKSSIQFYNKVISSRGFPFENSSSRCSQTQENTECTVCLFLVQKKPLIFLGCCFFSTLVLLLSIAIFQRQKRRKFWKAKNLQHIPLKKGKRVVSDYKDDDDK

[2] = target: T1, human β-klotho with a C-terminal FLAG …; experiment: cell-based or functional assay; remark: listed apart in the source

Row | pERK EC50 [1] | EC50 in the pERK assay [2] | Binder
1 | 5.1 nM |  | B1
2 | 3.9 nM |  | B2
3 | 4.1 nM |  | B3
4 | 30 nM |  | B4
5 |  | 24 nM | B5
6 |  | 20 nM | B6
7 |  | 28 nM | B7
8 |  | 30 nM | B8
9 | 4.6 nM |  | B9
10 |  | 39 nM | B10
11 |  | 30 nM | B11
12 |  | 42 nM | B12
13 |  | 30 nM | B13
14 |  | 36 nM | B14
15 | 28 nM |  | B15
16 | 69.2 nM |  | B16
17 | 39.1 nM |  | B17
18 | 28.4 nM |  | B18
19 | 21.9 nM |  | B19
20 | 28.2 nM |  | B20
21 | 31.9 nM |  | B21
